This note sets out measurements from article PMC5440694 (Nature Communications, 2017).

Holding throughout (settings): one partner purified
The target in test [1] is T1, biotinylated HA0 ectodomain of A/Perth/16/2009 (H3N2) (Influenza A virus A/Perth/16/2009 (H3N2), UniProt C6KNH7, strain, biotin on the BirA biotinylation site). The test can be described thus: BLI. A general note: In BLI a coated tip is dipped into the sample, and binding shifts an interference pattern.
For test [2], the target named is biotinylated HA0 ectodomain of A/Solomon Islands/3/2006 (H1N1) (Influenza A virus A/Solomon …, UniProt A7Y8I1, strain, biotin on the BirA biotinylation site). Briefly: yeast display selection (FACS) with next-generation sequencing.
Test [3] has as its target T1, biotinylated HA0 ectodomain of …. The test is described as above.

B1: C05 Fab variant VVDAGW, in supernatant of transfected 293T cells (Fab, V domains shown)
VH: QVQLQESGGGLVQPGESLRLSCVGSGSSFGESTLSYYAVSWVRQAPGKGLEWLSIINAGGGDIDYADSVEGRFTISRDNSKETLYLQMTNLRVEDTGVYYCAKHMSMQQVVDAGWERADLVGDAFDVWGQGTMVTVSS
VL: DIQLTQSPSSLSASVGDRVTLTCQASQDIRKFLNWYQQKPGKGPKLLIYDASNLQRGVPSRFSGGGSGTDFTLIISSLQPEDVGTYYCQQYDGLPFTFGGGTKVVIK
Take B1: the binding result in test [1] is “binds”.

B2: C05 Fab variant VPGAGW displayed on yeast (Fab, V domains shown)
VH: QVQLQESGGGLVQPGESLRLSCVGSGSSFGESTLSYYAVSWVRQAPGKGLEWLSIINAGGGDIDYADSVEGRFTISRDNSKETLYLQMTNLRVEDTGVYYCAKHMSMQQVPGAGWERADLVGDAFDVWGQGTMVTVSS
VL: DIQLTQSPSSLSASVGDRVTLTCQASQDIRKFLNWYQQKPGKGPKLLIYDASNLQRGVPSRFSGGGSGTDFTLIISSLQPEDVGTYYCQQYDGLPFTFGGGTKVVIK
As for B2, the binding result in test [2] and in test [3] was “binds” each time.

B3: C05 Fab variant VASAGW displayed on yeast (Fab, V domains shown)
VH: QVQLQESGGGLVQPGESLRLSCVGSGSSFGESTLSYYAVSWVRQAPGKGLEWLSIINAGGGDIDYADSVEGRFTISRDNSKETLYLQMTNLRVEDTGVYYCAKHMSMQQVASAGWERADLVGDAFDVWGQGTMVTVSS
VL: DIQLTQSPSSLSASVGDRVTLTCQASQDIRKFLNWYQQKPGKGPKLLIYDASNLQRGVPSRFSGGGSGTDFTLIISSLQPEDVGTYYCQQYDGLPFTFGGGTKVVIK
In the case of B3, the binding result in test [3] was “binds”.

B4: C05 Fab variant VATSGW displayed on yeast (Fab, V domains shown)
VH: QVQLQESGGGLVQPGESLRLSCVGSGSSFGESTLSYYAVSWVRQAPGKGLEWLSIINAGGGDIDYADSVEGRFTISRDNSKETLYLQMTNLRVEDTGVYYCAKHMSMQQVATSGWERADLVGDAFDVWGQGTMVTVSS
VL: DIQLTQSPSSLSASVGDRVTLTCQASQDIRKFLNWYQQKPGKGPKLLIYDASNLQRGVPSRFSGGGSGTDFTLIISSLQPEDVGTYYCQQYDGLPFTFGGGTKVVIK
For B4, the binding result in test [2] is “binds”.

B5: C05 Fab variant VVEAGW, in supernatant of transfected 293T cells (Fab, V domains shown)
VH: QVQLQESGGGLVQPGESLRLSCVGSGSSFGESTLSYYAVSWVRQAPGKGLEWLSIINAGGGDIDYADSVEGRFTISRDNSKETLYLQMTNLRVEDTGVYYCAKHMSMQQVVEAGWERADLVGDAFDVWGQGTMVTVSS
VL: DIQLTQSPSSLSASVGDRVTLTCQASQDIRKFLNWYQQKPGKGPKLLIYDASNLQRGVPSRFSGGGSGTDFTLIISSLQPEDVGTYYCQQYDGLPFTFGGGTKVVIK
For B5, the binding result in test [1] is “binds”.

B6: C05 Fab variant VEEAGW, in supernatant of transfected 293T cells (Fab, V domains shown)
VH: QVQLQESGGGLVQPGESLRLSCVGSGSSFGESTLSYYAVSWVRQAPGKGLEWLSIINAGGGDIDYADSVEGRFTISRDNSKETLYLQMTNLRVEDTGVYYCAKHMSMQQVEEAGWERADLVGDAFDVWGQGTMVTVSS
VL: DIQLTQSPSSLSASVGDRVTLTCQASQDIRKFLNWYQQKPGKGPKLLIYDASNLQRGVPSRFSGGGSGTDFTLIISSLQPEDVGTYYCQQYDGLPFTFGGGTKVVIK
notes: not shown: His6, C-terminal, kept
In the case of B6, the binding result in test [1] is listed as “binds”.

B7: C05 Fab variant YDPGGW displayed on yeast (Fab, V domains shown)
VH: QVQLQESGGGLVQPGESLRLSCVGSGSSFGESTLSYYAVSWVRQAPGKGLEWLSIINAGGGDIDYADSVEGRFTISRDNSKETLYLQMTNLRVEDTGVYYCAKHMSMQQYDPGGWERADLVGDAFDVWGQGTMVTVSS
VL: DIQLTQSPSSLSASVGDRVTLTCQASQDIRKFLNWYQQKPGKGPKLLIYDASNLQRGVPSRFSGGGSGTDFTLIISSLQPEDVGTYYCQQYDGLPFTFGGGTKVVIK
Regarding B7, the binding result in test [3] was “binds”.

B8: C05 Fab variant VVDSGW, in supernatant of transfected 293T cells (Fab, V domains shown)
VH: QVQLQESGGGLVQPGESLRLSCVGSGSSFGESTLSYYAVSWVRQAPGKGLEWLSIINAGGGDIDYADSVEGRFTISRDNSKETLYLQMTNLRVEDTGVYYCAKHMSMQQVVDSGWERADLVGDAFDVWGQGTMVTVSS
VL: DIQLTQSPSSLSASVGDRVTLTCQASQDIRKFLNWYQQKPGKGPKLLIYDASNLQRGVPSRFSGGGSGTDFTLIISSLQPEDVGTYYCQQYDGLPFTFGGGTKVVIK
notes: as for B6
For B8, the binding result in test [1] is on record as “binds”.

B9: C05 Fab variant WPEIGF displayed on yeast (Fab, V domains shown)
VH: QVQLQESGGGLVQPGESLRLSCVGSGSSFGESTLSYYAVSWVRQAPGKGLEWLSIINAGGGDIDYADSVEGRFTISRDNSKETLYLQMTNLRVEDTGVYYCAKHMSMQQWPEIGFERADLVGDAFDVWGQGTMVTVSS
VL: DIQLTQSPSSLSASVGDRVTLTCQASQDIRKFLNWYQQKPGKGPKLLIYDASNLQRGVPSRFSGGGSGTDFTLIISSLQPEDVGTYYCQQYDGLPFTFGGGTKVVIK
B9: in test [2], the binding result was “binds”.

B10: C05 Fab variant VVDSGW displayed on yeast (Fab, V domains shown)
VH: QVQLQESGGGLVQPGESLRLSCVGSGSSFGESTLSYYAVSWVRQAPGKGLEWLSIINAGGGDIDYADSVEGRFTISRDNSKETLYLQMTNLRVEDTGVYYCAKHMSMQQVVDSGWERADLVGDAFDVWGQGTMVTVSS
VL: DIQLTQSPSSLSASVGDRVTLTCQASQDIRKFLNWYQQKPGKGPKLLIYDASNLQRGVPSRFSGGGSGTDFTLIISSLQPEDVGTYYCQQYDGLPFTFGGGTKVVIK
Take B10: the binding result in test [3] is listed as “binds”.

B11: C05 Fab variant YEPAGW displayed on yeast (Fab, V domains shown)
VH: QVQLQESGGGLVQPGESLRLSCVGSGSSFGESTLSYYAVSWVRQAPGKGLEWLSIINAGGGDIDYADSVEGRFTISRDNSKETLYLQMTNLRVEDTGVYYCAKHMSMQQYEPAGWERADLVGDAFDVWGQGTMVTVSS
VL: DIQLTQSPSSLSASVGDRVTLTCQASQDIRKFLNWYQQKPGKGPKLLIYDASNLQRGVPSRFSGGGSGTDFTLIISSLQPEDVGTYYCQQYDGLPFTFGGGTKVVIK
For B11, the binding result in test [3] was “binds”.

B12: C05 Fab variant LPSSGW displayed on yeast (Fab, V domains shown)
VH: QVQLQESGGGLVQPGESLRLSCVGSGSSFGESTLSYYAVSWVRQAPGKGLEWLSIINAGGGDIDYADSVEGRFTISRDNSKETLYLQMTNLRVEDTGVYYCAKHMSMQQLPSSGWERADLVGDAFDVWGQGTMVTVSS
VL: DIQLTQSPSSLSASVGDRVTLTCQASQDIRKFLNWYQQKPGKGPKLLIYDASNLQRGVPSRFSGGGSGTDFTLIISSLQPEDVGTYYCQQYDGLPFTFGGGTKVVIK
B12: the binding result in test [2] is “binds”.

B13: C05 Fab variant LPGGGW displayed on yeast (Fab, V domains shown)
VH: QVQLQESGGGLVQPGESLRLSCVGSGSSFGESTLSYYAVSWVRQAPGKGLEWLSIINAGGGDIDYADSVEGRFTISRDNSKETLYLQMTNLRVEDTGVYYCAKHMSMQQLPGGGWERADLVGDAFDVWGQGTMVTVSS
VL: DIQLTQSPSSLSASVGDRVTLTCQASQDIRKFLNWYQQKPGKGPKLLIYDASNLQRGVPSRFSGGGSGTDFTLIISSLQPEDVGTYYCQQYDGLPFTFGGGTKVVIK
For the molecule B13, in test [3], the binding result is “binds”.

B14: C05 Fab variant VASSGW displayed on yeast (Fab, V domains shown)
VH: QVQLQESGGGLVQPGESLRLSCVGSGSSFGESTLSYYAVSWVRQAPGKGLEWLSIINAGGGDIDYADSVEGRFTISRDNSKETLYLQMTNLRVEDTGVYYCAKHMSMQQVASSGWERADLVGDAFDVWGQGTMVTVSS
VL: DIQLTQSPSSLSASVGDRVTLTCQASQDIRKFLNWYQQKPGKGPKLLIYDASNLQRGVPSRFSGGGSGTDFTLIISSLQPEDVGTYYCQQYDGLPFTFGGGTKVVIK
As for B14, in test [2], the binding result is on record as “binds”.

B15: C05 Fab variant WYVHLW displayed on yeast (Fab, V domains shown)
VH: QVQLQESGGGLVQPGESLRLSCVGSGSSFGESTLSYYAVSWVRQAPGKGLEWLSIINAGGGDIDYADSVEGRFTISRDNSKETLYLQMTNLRVEDTGVYYCAKHMSMQQWYVHLWERADLVGDAFDVWGQGTMVTVSS
VL: DIQLTQSPSSLSASVGDRVTLTCQASQDIRKFLNWYQQKPGKGPKLLIYDASNLQRGVPSRFSGGGSGTDFTLIISSLQPEDVGTYYCQQYDGLPFTFGGGTKVVIK
In the case of B15, the binding result in test [3] is on record as “binds”.

B16: C05 Fab variant IPGSGW displayed on yeast (Fab, V domains shown)
VH: QVQLQESGGGLVQPGESLRLSCVGSGSSFGESTLSYYAVSWVRQAPGKGLEWLSIINAGGGDIDYADSVEGRFTISRDNSKETLYLQMTNLRVEDTGVYYCAKHMSMQQIPGSGWERADLVGDAFDVWGQGTMVTVSS
VL: DIQLTQSPSSLSASVGDRVTLTCQASQDIRKFLNWYQQKPGKGPKLLIYDASNLQRGVPSRFSGGGSGTDFTLIISSLQPEDVGTYYCQQYDGLPFTFGGGTKVVIK
Take B16: the binding result in test [2] is recorded as “binds”.

B17: C05 Fab variant VVGSGW displayed on yeast (Fab, V domains shown)
VH: QVQLQESGGGLVQPGESLRLSCVGSGSSFGESTLSYYAVSWVRQAPGKGLEWLSIINAGGGDIDYADSVEGRFTISRDNSKETLYLQMTNLRVEDTGVYYCAKHMSMQQVVGSGWERADLVGDAFDVWGQGTMVTVSS
VL: DIQLTQSPSSLSASVGDRVTLTCQASQDIRKFLNWYQQKPGKGPKLLIYDASNLQRGVPSRFSGGGSGTDFTLIISSLQPEDVGTYYCQQYDGLPFTFGGGTKVVIK
For B17, the binding result in test [2] and in test [3] was “binds” each time.
